Experimental findings from patent US20240010684A1 (Bayer, published 2024) are described below.

Bridges are numbered along the chain shown (N, C = ends). Where no end group is shown, it is not given here. [ ]: non-standard residue; d: D form. Oic = O=C(O)[C@@H]1C[C@@H]2CCCC[C@@H]2N1; tBuAla = CC(C)(C)C[C@H](N)C(=O)O; Pen = CC(C)(S)[C@H](N)C(=O)O; 4Amb = NCc1ccc(C(=O)O)cc1; Dap = NC[C@H](N)C(=O)O; Ahx = NCCCCCC(=O)O; Sar = CNCC(=O)O

The labels stand for the following.
T1: recombinant rat MASP1 (amino acids 302-704, C-terminal His Tag) (rat, UniProt Q8CHN8 302-704)
T1 sequence: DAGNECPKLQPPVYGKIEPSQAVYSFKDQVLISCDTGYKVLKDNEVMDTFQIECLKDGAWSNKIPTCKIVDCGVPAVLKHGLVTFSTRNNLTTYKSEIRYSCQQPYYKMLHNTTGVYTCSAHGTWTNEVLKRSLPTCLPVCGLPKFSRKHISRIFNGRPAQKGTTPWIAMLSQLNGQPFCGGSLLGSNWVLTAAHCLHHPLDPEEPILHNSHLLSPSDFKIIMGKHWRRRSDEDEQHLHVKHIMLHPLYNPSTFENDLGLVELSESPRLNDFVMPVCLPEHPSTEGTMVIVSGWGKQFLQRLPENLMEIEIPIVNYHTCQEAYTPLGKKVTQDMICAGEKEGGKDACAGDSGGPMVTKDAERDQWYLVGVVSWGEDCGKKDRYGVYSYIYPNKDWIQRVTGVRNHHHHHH

T2: recombinant human MASP1 (amino acids 297-699, C-terminal His Tag) (human, UniProt P48740 297-699)
T2 sequence: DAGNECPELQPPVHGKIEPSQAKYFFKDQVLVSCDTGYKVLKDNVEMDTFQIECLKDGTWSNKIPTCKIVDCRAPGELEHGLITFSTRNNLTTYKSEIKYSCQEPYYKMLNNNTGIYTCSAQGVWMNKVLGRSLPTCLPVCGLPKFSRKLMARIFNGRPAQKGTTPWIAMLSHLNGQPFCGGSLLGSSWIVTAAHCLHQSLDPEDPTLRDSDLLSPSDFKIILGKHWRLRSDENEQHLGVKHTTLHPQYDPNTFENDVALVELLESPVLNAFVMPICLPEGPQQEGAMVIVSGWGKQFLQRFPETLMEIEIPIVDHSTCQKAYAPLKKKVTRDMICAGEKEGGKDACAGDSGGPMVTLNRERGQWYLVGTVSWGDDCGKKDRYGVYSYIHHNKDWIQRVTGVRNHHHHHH

B1: Reference peptide 12: P**FC+IPPISKTC+RGD** (peptide)
peptide: cyclo(PFCIPPISKTCRGD)
modifications: disulfide 3-11
SMILES: CC[C@H](C)[C@@H]1NC(=O)[C@@H]2CCCN2C(=O)[C@@H]2CCCN2C(=O)[C@H]([C@@H](C)CC)NC(=O)[C@@H]2CSSC[C@H](NC(=O)[C@H]([C@@H](C)O)NC(=O)[C@H](CCCCN)NC(=O)[C@H](CO)NC1=O)C(=O)N[C@@H](CCCNC(=N)N)C(=O)NCC(=O)N[C@@H](CC(=O)O)C(=O)N1CCC[C@H]1C(=O)N[C@@H](Cc1ccccc1)C(=O)N2
B2: Bicyclic SFMI-1: G**IC+SRSLPPIC+IPD** (peptide)
peptide: cyclo(GICSRSLPPICIPD)
modifications: disulfide 3-11
SMILES: CC[C@H](C)[C@@H]1NC(=O)CNC(=O)[C@H](CC(=O)O)NC(=O)[C@@H]2CCCN2C(=O)[C@H]([C@@H](C)CC)NC(=O)[C@@H]2CSSC[C@H](NC1=O)C(=O)N[C@@H](CO)C(=O)N[C@@H](CCCNC(=N)N)C(=O)N[C@@H](CO)C(=O)N[C@@H](CC(C)C)C(=O)N1CCC[C@H]1C(=O)N1CCC[C@H]1C(=O)N[C@@H]([C@@H](C)CC)C(=O)N2
B3: Bicyclic SFMI-2: G**YC+SRSYPPVC+IPD** (peptide)
peptide: cyclo(GYCSRSYPPVCIPD)
modifications: disulfide 3-11
SMILES: CC[C@H](C)[C@@H]1NC(=O)[C@@H]2CSSC[C@H](NC(=O)[C@H](Cc3ccc(O)cc3)NC(=O)CNC(=O)[C@H](CC(=O)O)NC(=O)[C@@H]3CCCN3C1=O)C(=O)N[C@@H](CO)C(=O)N[C@@H](CCCNC(=N)N)C(=O)N[C@@H](CO)C(=O)N[C@@H](Cc1ccc(O)cc1)C(=O)N1CCC[C@H]1C(=O)N1CCC[C@H]1C(=O)N[C@@H](C(C)C)C(=O)N2
B4: Example 75: (Ahx)**-IC+SRSLP-(Oic)-I-(Pen)+-IPE++-NH2 (peptide)
peptide: [Ahx]ICSRSLP[Oic]I[Pen]IPE-NH2
modifications: disulfide 3-11; lactam N-14; also: TFA salt
B5: Example 54: (Ahx)**-((N-Me)G)-IC+SRS-((tBu)A)-PPI-(Pen)+-IP** (peptide)
peptide: cyclo([Ahx][Sar]ICSRS[tBuAla]PPI[Pen]IP)
modifications: disulfide 4-12; also: TFA salt
B6: Example 28: (Ahx)**-GIC+SRS-((tBu)A)-PPI-(Pen)+-IPD** (peptide)
peptide: cyclo([Ahx]GICSRS[tBuAla]PPI[Pen]IPD)
modifications: disulfide 4-12; also: TFA salt
B7: Example 53: (Ahx)**-AIC+SRS-((tBu)A)-PPI-(Pen)+-IP** (peptide)
peptide: cyclo([Ahx]AICSRS[tBuAla]PPI[Pen]IP)
modifications: disulfide 4-12; also: TFA salt
B8: Example 39: A**GGIC+SRS-((tBu)A)-PPI-(Pen)+-IPd** (peptide)
peptide: cyclo(AGGICSRS[tBuAla]PPI[Pen]IP[dD])
modifications: disulfide 5-13; also: TFA salt
B9: Example 72: (Ahx)**-AIC+SRS-((tBu)A)-PPI-(Pen)+-I** (peptide)
peptide: cyclo([Ahx]AICSRS[tBuAla]PPI[Pen]I)
modifications: disulfide 4-12; also: TFA salt
B10: Example 64: (Ahx)**-((N-Me)G)-IC+SRS-((tBu)A)-PPI-(Pen)+-I** (peptide)
peptide: cyclo([Ahx][Sar]ICSRS[tBuAla]PPI[Pen]I)
modifications: disulfide 4-12; also: TFA salt
B11: Example 58: I**C+SRS-((tBu)A)-PPI-(Pen)+-IPP** (peptide)
peptide: cyclo(ICSRS[tBuAla]PPI[Pen]IPP)
modifications: disulfide 2-10; also: TFA salt
B12: Example 89: (Dap)**-(Dap)-IC+SRSLP-(Oic)-I-(Pen)+-IP** (peptide)
peptide: cyclo([Dap][Dap]ICSRSLP[Oic]I[Pen]IP)
modifications: disulfide 4-12; also: TFA salt
B13: Example 92: A**GGIC+SRSLP-(Oic)-I-(Pen)+-IPD** (peptide)
peptide: cyclo(AGGICSRSLP[Oic]I[Pen]IPD)
modifications: disulfide 5-13; also: TFA salt
B14: Example 52: (Ahx)**-IC+SRS-((tBu)A)-PPI-(Pen)+-I** (peptide)
peptide: cyclo([Ahx]ICSRS[tBuAla]PPI[Pen]I)
modifications: disulfide 3-11; also: TFA salt
B15: Example 68: (Ahx)**-(4-(Aminomethyl)benzoic acid)-IC+SRS-((tBu)A)-PPI-(Pen)+-IP** (peptide)
peptide: cyclo([Ahx][4Amb]ICSRS[tBuAla]PPI[Pen]IP)
modifications: disulfide 4-12; also: TFA salt
B16: Example 93: E++GIC+SRSLP-(Oic)-I-(Pen)+-IPD-(Dap)++-NH2 (peptide)
peptide: EGICSRSLP[Oic]I[Pen]IPD[Dap]-NH2
modifications: lactam 1-16; disulfide 4-12; also: TFA salt

In one assay the target is T3, recombinant rat MASP2 (amino acids 296-685, C-terminal His Tag) (rat, UniProt Q9JJS8 296-685). In words: cell-based or functional assay.
T3 sequence (Q9JJS8 other isoform, or with tags, fused parts or gaps limits assumed): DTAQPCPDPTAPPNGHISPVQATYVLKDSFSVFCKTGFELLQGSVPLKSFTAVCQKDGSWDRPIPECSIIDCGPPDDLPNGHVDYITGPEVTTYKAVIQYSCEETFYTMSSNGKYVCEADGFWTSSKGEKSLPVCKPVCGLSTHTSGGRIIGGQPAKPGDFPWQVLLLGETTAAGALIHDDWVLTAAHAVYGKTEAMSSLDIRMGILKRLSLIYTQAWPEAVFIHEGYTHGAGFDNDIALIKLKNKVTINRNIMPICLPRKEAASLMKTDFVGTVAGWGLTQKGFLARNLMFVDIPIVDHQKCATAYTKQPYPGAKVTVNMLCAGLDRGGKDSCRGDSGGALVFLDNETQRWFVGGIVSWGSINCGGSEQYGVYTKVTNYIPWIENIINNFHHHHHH
In the case of B1, the “rat MASP2 IC50” value is 1000 nM.

Consider B2, for which the “rat MASP2 IC50” value stood at 232 nM.

As for B3, the “rat MASP2 IC50” value worked out at 126 nM.

In another assay the target is T1, recombinant rat MASP1 (amino acids …). Nature of the assay: cell-based or functional assay.
As to B1, the “rat MASP1 IC50” value is 1000 nM.

For the molecule B2, the “rat MASP1 IC50” value worked out at 1000 nM.

Regarding B3, the “rat MASP1 IC50” value was 1000 nM.

The next assay deals with T2, recombinant human MASP1 (amino acids …). Nature of the assay: cell-based or functional assay.
Take B1: the “human MASP1 IC50” value was found to be 4800 nM.

B2: the “human MASP1 IC50” value was 145 nM.

Take B3: the “human MASP1 IC50” value amounted to 8130 nM.

For another assay, the target named is T4, recombinant human MASP2 (amino acids 297-686, C-terminal His Tag) (human, UniProt O00187 297-686). Nature of the assay: cell-based or functional assay.
T4 sequence (O00187 other isoform, or with tags, fused parts or gaps limits assumed): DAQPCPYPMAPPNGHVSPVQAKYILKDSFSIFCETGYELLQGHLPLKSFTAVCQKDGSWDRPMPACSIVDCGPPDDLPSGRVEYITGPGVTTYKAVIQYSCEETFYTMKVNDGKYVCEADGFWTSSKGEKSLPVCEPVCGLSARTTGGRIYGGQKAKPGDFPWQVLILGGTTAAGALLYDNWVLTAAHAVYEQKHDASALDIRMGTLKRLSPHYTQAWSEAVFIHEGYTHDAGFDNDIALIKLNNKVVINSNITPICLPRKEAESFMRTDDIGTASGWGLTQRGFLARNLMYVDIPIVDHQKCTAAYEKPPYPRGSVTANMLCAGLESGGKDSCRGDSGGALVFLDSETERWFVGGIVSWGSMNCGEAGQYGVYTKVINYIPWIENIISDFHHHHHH
Take B1: the “human MASP2 IC50” value is 5000 nM.

As to B2, the “human MASP2 IC50” value worked out at 895 nM.

A further assay has as its target T2, recombinant human MASP1 (amino acids …). In words: cell-based or functional assay. This is another data set of the same source.
For the molecule B4, the “human MASP1 IC50” value was determined as 7.2 nM.

Consider B5, for which the “human MASP1 IC50” value amounted to 8.5 nM.

Take B6: the “human MASP1 IC50” value stood at 19 nM.

As for B7, the “human MASP1 IC50” value stood at 6.75 nM.

Regarding B8, the “human MASP1 IC50” value is 6 nM.

As for B9, the “human MASP1 IC50” value is 6.3 nM.

As for B10, the “human MASP1 IC50” value amounted to 9.4 nM.

With B11, the “human MASP1 IC50” value worked out at 9 nM.

As to B12, the “human MASP1 IC50” value came out at 5.7 nM.

B13: the “human MASP1 IC50” value was determined as 8.4 nM.

As to B14, the “human MASP1 IC50” value came out at 7.9 nM.

With B15, the “human MASP1 IC50” value came out at 6.1 nM.

For B16, the “human MASP1 IC50” value came to 35 nM.

The next assay has as its target T4, recombinant human MASP2 (amino acids …). Nature of the assay: cell-based or functional assay. The source holds these as a separate data set.
In the case of B4, the “human MASP2 IC50” value came to 14 nM.

Consider B5, for which the “human MASP2 IC50” value amounted to 33 nM.

B6: the “human MASP2 IC50” value worked out at 29 nM.

B7: the “human MASP2 IC50” value came out at 83.5 nM.

In the case of B8, the “human MASP2 IC50” value is 75 nM.

Consider B9, for which the “human MASP2 IC50” value was 48 nM.

In the case of B10, the “human MASP2 IC50” value was determined as 12 nM.

B11: the “human MASP2 IC50” value came to 650 nM.

In the case of B12, the “human MASP2 IC50” value was found to be 91 nM.

Regarding B13, the “human MASP2 IC50” value came out at 77 nM.

For B14, the “human MASP2 IC50” value was found to be 9.3 nM.

As for B15, the “human MASP2 IC50” value amounted to 2.57 nM.

As for B16, the “human MASP2 IC50” value stood at 45 nM.

The target of the next assay is T3, recombinant rat MASP2 (amino acids …). Nature of the assay: cell-based or functional assay. This is another data set of the same source.
Turning to B4, the “rat MASP2 IC50” value amounted to 1.4 nM.

In the case of B5, the “rat MASP2 IC50” value came to 18 nM.

B6: the “rat MASP2 IC50” value amounted to 16 nM.

With B7, the “rat MASP2 IC50” value is 19 nM.

Turning to B8, the “rat MASP2 IC50” value amounted to 8 nM.

Regarding B9, the “rat MASP2 IC50” value was determined as 14 nM.

Regarding B10, the “rat MASP2 IC50” value was 13 nM.

Take B11: the “rat MASP2 IC50” value was found to be 46 nM.

On to B12, for which the “rat MASP2 IC50” value came to 64 nM.

With B13, the “rat MASP2 IC50” value came out at 41 nM.

Consider B14, for which the “rat MASP2 IC50” value worked out at 11.6 nM.

Regarding B15, the “rat MASP2 IC50” value stood at 2.97 nM.

Take B16: the “rat MASP2 IC50” value amounted to 68 nM.

A further assay has as its target T1, recombinant rat MASP1 (amino acids …). In words: cell-based or functional assay. This is another data set of the same source.
Take B4: the “rat MASP1 IC50” value was determined as 27 nM.

Consider B5, for which the “rat MASP1 IC50” value stood at 180 nM.

In the case of B6, the “rat MASP1 IC50” value amounted to 79 nM.

For B7, the “rat MASP1 IC50” value amounted to 96 nM.

Regarding B8, the “rat MASP1 IC50” value worked out at 44 nM.

Consider B9, for which the “rat MASP1 IC50” value amounted to 85 nM.

As for B10, the “rat MASP1 IC50” value came out at 157 nM.

Regarding B11, the “rat MASP1 IC50” value came to 110 nM.

Consider B12, for which the “rat MASP1 IC50” value was 290 nM.

In the case of B13, the “rat MASP1 IC50” value came out at 170 nM.

As for B14, the “rat MASP1 IC50” value was 79 nM.

Regarding B15, the “rat MASP1 IC50” value came to 30.8 nM.

As to B16, the “rat MASP1 IC50” value amounted to 410 nM.
